Key:
iRFP713 [1] = assay: SEC; side-by-side comparison of miRFPs with IFP2.0 and iRFP713 (Supplementary Fig. 3 or 4), HiLoad 16/600 Superdex 200; concentration not given
iRFP713 [2] = assay: AUC; sedimentation velocity, 20 °C, 58,000 r.p.m., PBS, absorbance at 645 nm, protein at A645 ≈0.9; side-by-side comparison of miRFPs with IFP2.0 and iRFP713
IFP2.0 [3] = assay: SEC; side-by-side comparison of miRFPs with IFP2.0 and iRFP713 (Supplementary Fig. 3 or 4), HiLoad 16/600 Superdex 200; concentration not given
IFP2.0 [4] = assay: AUC; sedimentation velocity, 20 °C, 58,000 r.p.m., PBS, absorbance at 645 nm, protein at A645 ≈0.9; side-by-side comparison of miRFPs with IFP2.0 and iRFP713

| stoichiometry N (iRFP713 [1]) | stoichiometry N (iRFP713 [2]) | stoichiometry N (IFP2.0 [3]) | stoichiometry N (IFP2.0 [4]) | Substance |
| --- | --- | --- | --- | --- |
| 2 | 2 | – | – | iRFP713 |
| – | – | 2 | 2 | IFP2.0 |

Reference: PMC4992171
